IC50 data for 19 molecules are collected here from US20180148477A1 (published 2018).

Bridge positions count the residues as written; N and C are the ends. Square brackets hold non-standard residues; d marks the D form. Ends that are not written are not given here. Bip = N[C@@H](Cc1ccc(-c2ccccc2)cc1)C(=O)O; 1Nal = N[C@@H](Cc1cccc2ccccc12)C(=O)O; 2Nal = N[C@@H](Cc1ccc2ccccc2c1)C(=O)O; NMeR = CN[C@@H](CCCNC(=N)N)C(=O)O; hPhe = N[C@@H](CCc1ccccc1)C(=O)O; Tic = O=C(O)[C@@H]1Cc2ccccc2CN1; β3hE = N[C@@H](CCC(=O)O)CC(=O)O; Aic = NC1(C(=O)O)Cc2ccccc2C1; NMeK = CN[C@@H](CCCCN)C(=O)O; Pen = CC(C)(S)[C@H](N)C(=O)O; dNMeK = CN[C@H](CCCCN)C(=O)O

Assay [1] concerns the target α4β1 (R&D Systems #5668-A4) (UniProt P13612). Nature of the assay: competition ELISA vs VCAM-1.
The target in assay [2] is rh integrin α4β7 (R&D Systems #5397-A30) (human) (UniProt P13612). Nature of the assay: competition ELISA vs MAdCAM-1.
The target in assay [3] is human α4β7 integrin on cells (human) (UniProt P13612). Description: RPMI8866 adhesion to MAdCAM-1.
The target of assay [4] is mouse α4β7 integrin on TK1 cells (mouse) (UniProt Q00651). Nature of the assay: TK1 adhesion to MAdCAM-1.
mouse α4β7 integrin on TK1 cells (mouse), sequence (Q00651 41-1039, chain 1 of 2): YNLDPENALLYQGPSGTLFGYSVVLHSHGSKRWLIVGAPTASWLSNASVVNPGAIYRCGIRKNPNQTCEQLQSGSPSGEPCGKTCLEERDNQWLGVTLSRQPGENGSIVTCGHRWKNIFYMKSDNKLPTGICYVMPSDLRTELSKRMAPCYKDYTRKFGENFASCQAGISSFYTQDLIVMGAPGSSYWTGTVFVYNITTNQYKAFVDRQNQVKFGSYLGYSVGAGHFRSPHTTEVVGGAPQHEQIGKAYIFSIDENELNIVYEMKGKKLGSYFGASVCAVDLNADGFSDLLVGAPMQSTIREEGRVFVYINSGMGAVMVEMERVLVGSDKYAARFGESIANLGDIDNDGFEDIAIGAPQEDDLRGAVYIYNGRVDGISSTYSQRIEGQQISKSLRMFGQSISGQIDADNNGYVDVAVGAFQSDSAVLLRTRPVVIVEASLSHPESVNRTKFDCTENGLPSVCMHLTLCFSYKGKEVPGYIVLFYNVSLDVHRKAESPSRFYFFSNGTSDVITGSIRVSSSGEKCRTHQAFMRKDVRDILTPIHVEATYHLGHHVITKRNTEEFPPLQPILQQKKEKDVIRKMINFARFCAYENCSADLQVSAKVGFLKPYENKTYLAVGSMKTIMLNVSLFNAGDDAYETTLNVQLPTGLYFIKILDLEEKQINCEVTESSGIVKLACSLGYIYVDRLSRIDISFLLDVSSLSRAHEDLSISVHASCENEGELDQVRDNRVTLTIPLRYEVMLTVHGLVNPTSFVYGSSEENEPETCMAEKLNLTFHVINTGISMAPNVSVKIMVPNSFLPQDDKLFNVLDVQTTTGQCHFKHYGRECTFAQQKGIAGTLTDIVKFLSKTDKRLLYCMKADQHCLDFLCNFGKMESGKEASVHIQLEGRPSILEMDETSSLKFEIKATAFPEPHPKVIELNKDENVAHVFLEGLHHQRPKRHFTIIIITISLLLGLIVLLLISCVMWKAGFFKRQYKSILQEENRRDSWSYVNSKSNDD
mouse α4β7 integrin on TK1 cells (mouse), sequence (P26011 20-806, chain 2 of 2, further chain): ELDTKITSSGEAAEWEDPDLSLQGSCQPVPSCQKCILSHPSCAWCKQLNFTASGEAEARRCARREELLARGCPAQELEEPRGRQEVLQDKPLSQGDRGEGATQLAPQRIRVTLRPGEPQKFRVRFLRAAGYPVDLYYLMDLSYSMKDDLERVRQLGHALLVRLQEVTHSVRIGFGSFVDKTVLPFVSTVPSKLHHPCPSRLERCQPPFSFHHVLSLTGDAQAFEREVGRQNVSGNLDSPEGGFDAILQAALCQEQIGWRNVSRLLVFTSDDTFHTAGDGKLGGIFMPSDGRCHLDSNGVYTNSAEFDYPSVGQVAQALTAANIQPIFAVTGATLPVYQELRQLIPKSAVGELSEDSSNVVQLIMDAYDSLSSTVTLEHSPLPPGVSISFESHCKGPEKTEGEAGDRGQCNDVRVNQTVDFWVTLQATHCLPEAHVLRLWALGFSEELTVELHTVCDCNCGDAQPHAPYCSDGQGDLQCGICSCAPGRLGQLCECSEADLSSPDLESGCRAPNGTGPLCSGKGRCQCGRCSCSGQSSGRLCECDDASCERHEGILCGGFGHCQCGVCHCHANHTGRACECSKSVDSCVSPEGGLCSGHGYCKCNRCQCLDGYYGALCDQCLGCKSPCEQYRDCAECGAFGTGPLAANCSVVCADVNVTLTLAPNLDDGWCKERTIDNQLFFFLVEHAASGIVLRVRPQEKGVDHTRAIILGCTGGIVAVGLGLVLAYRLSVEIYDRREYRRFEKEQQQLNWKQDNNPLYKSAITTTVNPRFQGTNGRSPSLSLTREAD

Consider Ac-[Pen][NMeR]SDTL[Pen][2Nal][β3hE][dK]-NH2 (disulfide 1-7 (inferred); also: homodimer via DIG) [SEQ ID NO: 137], for which the half-inhibitory concentration (IC50) in assay [1] was more than 1000 nM; in assay [2], less than 10 nM; in assay [3] it was less than 10 nM.

Turning to Ac-[Pen][NMeR]SDTL[Pen][2Nal][dE][dK]-NH2 (disulfide 1-7; also: dimer via DIG) [SEQ ID NO: 33], the IC50 in assay [1] was more than 100 nM; in assay [2] it was less than 10 nM; in assay [3] it was more than 10 nM.

B1: SEQ ID NO: 51 (peptide)
peptide: Ac-[Pen][NMeR]SDTL[Pen]W[Aic][dK]-NH2
modifications: disulfide 1-7
SMILES: CC(=O)N[C@@H]1C(=O)N(C)[C@@H](CCCNC(=N)N)C(=O)N[C@@H](CO)C(=O)N[C@@H](CC(=O)O)C(=O)N[C@@H]([C@@H](C)O)C(=O)N[C@@H](CC(C)C)C(=O)N[C@H](C(=O)N[C@@H](Cc2c[nH]c3ccccc23)C(=O)NC2(C(=O)N[C@H](CCCCN)C(N)=O)Cc3ccccc3C2)C(C)(C)SSC1(C)C
With B1, in assay [2], the IC50 is more than 25 nM.

Take Ac-[Pen][NMeR]SDTL[Pen][1Nal]E[dK]-NH2 (disulfide 1-7; also: dimer via DIG) [SEQ ID NO: 24]: the IC50 in assay [1] is more than 100 nM; in assay [2] it was less than 10 nM; in assay [3], less than 10 nM.

B2: SEQ ID NO: 18 (peptide)
peptide: Ac-[Pen][NMeR]SDTL[Pen][1Nal]E[dNMeK]-NH2
modifications: disulfide 1-7
SMILES: CC(=O)N[C@@H]1C(=O)N(C)[C@@H](CCCNC(=N)N)C(=O)N[C@@H](CO)C(=O)N[C@@H](CC(=O)O)C(=O)N[C@@H]([C@@H](C)O)C(=O)N[C@@H](CC(C)C)C(=O)N[C@H](C(=O)N[C@@H](Cc2cccc3ccccc23)C(=O)N[C@@H](CCC(=O)O)C(=O)N(C)[C@H](CCCCN)C(N)=O)C(C)(C)SSC1(C)C
For the molecule B2, the figures for the IC50 in assay [1] and in assay [2] were more than 500 nM and more than 10 nM, respectively.

Turning to Ac-[Pen][NMeR]SDTL[Pen][Bip][β3hE][NMeK]-NH2 (disulfide 1-7 (inferred); also: dimer via DIG linker) [SEQ ID NO: 150], the IC50 in assay [1] was more than 1000 nM; in assay [4], less than 10 nM; in assay [2], less than 10 nM; in assay [3], less than 10 nM.

As for Ac-[Pen][NMeR]SDTL[Pen][2Nal][dE][dK]-NH2 (disulfide 1-7; also: dimer via DIG) [SEQ ID NO: 29], the IC50 in assay [2] is less than 10 nM; in assay [3], more than 10 nM.

In the case of Ac-[Pen][NMeR]SDTL[Pen][1Nal][dE][dK]-NH2 (disulfide 1-7; also: dimer via DIG) [SEQ ID NO: 32], the values for the IC50 in assay [1], in assay [2] and in assay [3] were more than 100 nM, less than 10 nM and more than 10 nM, respectively.

B3: SEQ ID NO: 9 (peptide)
peptide: Ac-[Pen][NMeR]SDTL[Pen][2Nal][dE][dK]-NH2
modifications: disulfide 1-7
SMILES: CC(=O)N[C@@H]1C(=O)N(C)[C@@H](CCCNC(=N)N)C(=O)N[C@@H](CO)C(=O)N[C@@H](CC(=O)O)C(=O)N[C@@H]([C@@H](C)O)C(=O)N[C@@H](CC(C)C)C(=O)N[C@H](C(=O)N[C@@H](Cc2ccc3ccccc3c2)C(=O)N[C@H](CCC(=O)O)C(=O)N[C@H](CCCCN)C(N)=O)C(C)(C)SSC1(C)C
As to B3, the IC50 in assay [2] was more than 10 nM; in assay [3], more than 100 nM.

As to Ac-[Pen][NMeR]SDTL[Pen][2Nal][dE][dNMeK]-NH2 (disulfide 1-7 (inferred)) [SEQ ID NO: 13], the half-inhibitory concentration (IC50) was more than 10 nM in assay [2] and more than 100 nM in assay [3].

Regarding Ac-[Pen][NMeR]SDTL[Pen][2Nal]E[NMeK]-NH2 (disulfide 1-7 (inferred); also: homodimer via DIG) [SEQ ID NO: 138], the IC50 in assay [2] and in assay [3] was more than 10 nM in each case.

Consider Ac-[Pen][NMeR]SDTL[Pen][1Nal][dE][dNMeK]-NH2 (disulfide 1-7; also: dimer via DIG) [SEQ ID NO: 38], for which the results for the IC50 in assay [1], in assay [2] and in assay [3] were more than 100 nM, less than 10 nM and less than 10 nM, respectively.

With Ac-[Pen][NMeR]SDTL[Pen][2Nal]E[dNMeK]-NH2 (disulfide 1-7; also: dimer via DIG) [SEQ ID NO: 41], the values for the IC50 in assay [1], in assay [2] and in assay [3] were more than 100 nM, less than 10 nM and less than 10 nM, respectively.

For the molecule Ac-[Pen][NMeR]SDTL[Pen][2Nal][β3hE]-NH2 (disulfide 1-7 (inferred)) [SEQ ID NO: 155], the IC50 in assay [1] was more than 1000 nM; in assay [4], more than 25 nM; in assay [3], more than 25 nM.

With Ac-[Pen][NMeR]SDTL[Pen][Bip]E[dK]-NH2 (disulfide 1-7 (inferred); also: homodimer via DIG) [SEQ ID NO: 134], the IC50 in assay [1] was more than 100 nM; in assay [2] it was less than 10 nM; in assay [3], less than 10 nM.

On to Ac-[Pen][NMeR]SDTL[Pen][2Nal]Y[dK]-NH2 (disulfide 1-7; also: dimer via DIG) [SEQ ID NO: 23], for which the values for the IC50 in assay [1] and in assay [3] were more than 100 nM and less than 10 nM, respectively.

B4: SEQ ID NO: 143 (peptide)
peptide: [Pen][NMeR]SDTL[Pen][2Nal]E
modifications: disulfide 1-7 (inferred); not fully specified (bridges); printed as Cyclo-[Pen-N-Me-R-S-D-T-L-Pen-2-Nal-E], Pen-Pen disulfide
B4: the IC50 in assay [2] was 250 nM; in assay [3], more than 10000 nM.

Turning to Ac-[Pen][NMeR]SDTL[Pen][Tic][β3hE]-NH2 (disulfide 1-7 (inferred)) [SEQ ID NO: 154], the IC50 in assay [1] is more than 1000 nM; in assay [4], more than 1000 nM; in assay [3], more than 100 nM.

B5: SEQ ID NO: 50 (peptide)
peptide: Ac-[Pen][NMeR]SDTL[Pen][2Nal][hPhe][dK]-NH2
modifications: disulfide 1-7
SMILES: CC(=O)N[C@@H]1C(=O)N(C)[C@@H](CCCNC(=N)N)C(=O)N[C@@H](CO)C(=O)N[C@@H](CC(=O)O)C(=O)N[C@@H]([C@@H](C)O)C(=O)N[C@@H](CC(C)C)C(=O)N[C@H](C(=O)N[C@@H](Cc2ccc3ccccc3c2)C(=O)N[C@@H](CCc2ccccc2)C(=O)N[C@H](CCCCN)C(N)=O)C(C)(C)SSC1(C)C
B5 gave a half-maximal inhibitory concentration (IC50) in assay [2] of more than 10 nM.
